Experimental data: paper PMC6555819, “Comprehensive study of nuclear receptor DNA binding provides a revised framework for understanding receptor specificity”

What was measured:
[1] = molecular target: RARa:RXRa (Homo sapiens, UniProt P10276;P19793 full;full); assay: no ligand; PBM; 270 nM : 90 nM RXRa; PBS pH 7.4, 2% milk, 0.02% Triton X-100, 1 mM DTT, BSA, 0.4 mg/ml salmon testes DNA; conditions: tags: His kept;His cleaved; copies: 1;1; label: surface-attached array probe
Summary of the method: (§1)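 The probes on custom Agilent 4×180K protein-binding microarrays were double-stranded, with 34-nt variable regions bearing direct-repeat seeds, single-nucleotide variants, half-site ablations and random human genomic background sequences. Incubation lasted 1 h with ligand-free nuclear receptor dimers in PBS pH 7.4, 2% milk, 0.02% Triton X-100, 1 mM DTT, 0.2 mg/mL BSA and 0.4 mg/ml salmon testes DNA. Antibodies against each partner (one per run) detected bound dimers, and fluorescence scans were regression-normalized. Binding z-scores take the random background probes as reference.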

[2] = molecular target: LXRa:RXRa (Homo sapiens, UniProt Q13133;P19793 full;full); assay: as above; conditions: tags: His kept;His cleaved; copies: 1;1; label: surface-attached array probe
Summary of the method: as §1

[3] = molecular target: PXR:RXRa (Homo sapiens, UniProt O75469;P19793 full;full); assay: as above; conditions: tags: His kept;His cleaved; copies: 1;1; label: surface-attached array probe
Summary of the method: as §1

[4] = molecular target: PPARg:RXRa (Homo sapiens, UniProt P37231;P19793 full;full); assay: no ligand; PBM; 180 nM : 90 nM RXRa; PBS pH 7.4, 2% milk, 0.02% Triton X-100, 1 mM DTT, BSA, 0.4 mg/ml salmon testes DNA; conditions: tags: His kept;His cleaved; copies: 1;1; label: surface-attached array probe
[5] = molecular target: VDR:RXRa (Homo sapiens, UniProt P11473;P19793 full;full); assay: no ligand; PBM; 270 nM : 90 nM RXRa; PBS pH 7.4, 2% milk, 0.02% Triton X-100, 1 mM DTT, BSA, 0.4 mg/ml salmon testes DNA; conditions: tags: His kept;His cleaved; copies: 1;1; label: surface-attached array probe
Summary of the method: as §1

[6] = molecular target: RARg:RXRa (Homo sapiens, UniProt P13631;P19793 full;full); assay: as above; conditions: tags: His kept;His cleaved; copies: 1;1; label: surface-attached array probe
Summary of the method: as §1

[7] = molecular target: PPARa:RXRa (Homo sapiens, UniProt Q07869;P19793 full;full); assay: as above; conditions: tags: GST kept;His cleaved; copies: 1;1; label: surface-attached array probe
Summary of the method: as §1

Chain of PPARg:RXRa (P37231 29-505, chain 1 of 2): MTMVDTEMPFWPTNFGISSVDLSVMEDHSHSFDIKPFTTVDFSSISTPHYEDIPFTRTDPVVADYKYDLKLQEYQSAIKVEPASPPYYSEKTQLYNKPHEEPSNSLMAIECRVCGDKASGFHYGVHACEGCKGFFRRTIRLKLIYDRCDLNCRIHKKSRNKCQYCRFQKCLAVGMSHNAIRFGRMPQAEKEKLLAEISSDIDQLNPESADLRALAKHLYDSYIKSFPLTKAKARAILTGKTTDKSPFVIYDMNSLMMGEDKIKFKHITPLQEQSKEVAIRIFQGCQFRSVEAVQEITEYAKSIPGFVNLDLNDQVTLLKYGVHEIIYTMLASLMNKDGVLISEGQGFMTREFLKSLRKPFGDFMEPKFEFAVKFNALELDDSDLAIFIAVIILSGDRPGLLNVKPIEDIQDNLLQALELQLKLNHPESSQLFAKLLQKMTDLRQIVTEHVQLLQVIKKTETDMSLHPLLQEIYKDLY
Chain of PPARg:RXRa (P19793 whole entry, chain 2 of 2): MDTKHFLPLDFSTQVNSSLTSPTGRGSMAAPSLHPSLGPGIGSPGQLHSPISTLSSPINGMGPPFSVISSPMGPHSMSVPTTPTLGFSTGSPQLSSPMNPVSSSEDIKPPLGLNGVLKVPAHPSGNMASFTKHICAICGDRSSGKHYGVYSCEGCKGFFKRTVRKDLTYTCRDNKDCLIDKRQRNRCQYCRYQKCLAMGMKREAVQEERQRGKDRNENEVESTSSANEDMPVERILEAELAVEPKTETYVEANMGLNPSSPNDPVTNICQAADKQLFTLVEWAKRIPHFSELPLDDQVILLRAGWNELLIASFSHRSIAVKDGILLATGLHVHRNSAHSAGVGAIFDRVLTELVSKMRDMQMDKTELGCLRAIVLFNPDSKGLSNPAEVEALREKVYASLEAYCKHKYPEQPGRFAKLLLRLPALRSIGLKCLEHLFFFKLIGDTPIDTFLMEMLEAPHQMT
Chain of PXR:RXRa (O75469 whole entry, chain 1 of 2): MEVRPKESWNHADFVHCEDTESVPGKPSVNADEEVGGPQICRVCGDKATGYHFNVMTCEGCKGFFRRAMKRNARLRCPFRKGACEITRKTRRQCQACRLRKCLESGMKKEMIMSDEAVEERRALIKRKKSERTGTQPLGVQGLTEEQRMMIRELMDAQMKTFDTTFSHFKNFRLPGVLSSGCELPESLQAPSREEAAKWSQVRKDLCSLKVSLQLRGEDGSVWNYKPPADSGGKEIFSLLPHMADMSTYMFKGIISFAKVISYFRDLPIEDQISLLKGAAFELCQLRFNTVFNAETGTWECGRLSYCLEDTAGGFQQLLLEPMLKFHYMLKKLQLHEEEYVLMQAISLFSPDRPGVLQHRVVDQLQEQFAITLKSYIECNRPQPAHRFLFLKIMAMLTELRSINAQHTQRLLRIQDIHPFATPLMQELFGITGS
Chain of PXR:RXRa (P19793 whole entry, chain 2 of 2): as the sequence (P19793 whole entry, chain 2 of 2) above
Chain of RARa:RXRa (P10276 whole entry, chain 1 of 2): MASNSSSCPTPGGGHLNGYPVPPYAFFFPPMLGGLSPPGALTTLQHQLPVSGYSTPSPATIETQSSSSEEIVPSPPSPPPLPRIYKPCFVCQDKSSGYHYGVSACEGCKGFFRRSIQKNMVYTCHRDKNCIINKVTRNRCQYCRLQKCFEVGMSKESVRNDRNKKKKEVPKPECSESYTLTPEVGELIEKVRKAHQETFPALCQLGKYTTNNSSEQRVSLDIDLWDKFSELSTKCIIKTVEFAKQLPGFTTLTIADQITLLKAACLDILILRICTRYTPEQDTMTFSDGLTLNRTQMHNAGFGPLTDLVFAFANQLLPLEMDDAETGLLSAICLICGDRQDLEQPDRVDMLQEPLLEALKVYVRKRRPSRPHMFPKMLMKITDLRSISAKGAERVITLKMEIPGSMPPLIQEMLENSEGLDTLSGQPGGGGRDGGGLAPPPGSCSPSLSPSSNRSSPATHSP
Chain of RARa:RXRa (P19793 whole entry, chain 2 of 2): as the sequence (P19793 whole entry, chain 2 of 2) above
Chain of RARg:RXRa (P13631 whole entry, chain 1 of 2): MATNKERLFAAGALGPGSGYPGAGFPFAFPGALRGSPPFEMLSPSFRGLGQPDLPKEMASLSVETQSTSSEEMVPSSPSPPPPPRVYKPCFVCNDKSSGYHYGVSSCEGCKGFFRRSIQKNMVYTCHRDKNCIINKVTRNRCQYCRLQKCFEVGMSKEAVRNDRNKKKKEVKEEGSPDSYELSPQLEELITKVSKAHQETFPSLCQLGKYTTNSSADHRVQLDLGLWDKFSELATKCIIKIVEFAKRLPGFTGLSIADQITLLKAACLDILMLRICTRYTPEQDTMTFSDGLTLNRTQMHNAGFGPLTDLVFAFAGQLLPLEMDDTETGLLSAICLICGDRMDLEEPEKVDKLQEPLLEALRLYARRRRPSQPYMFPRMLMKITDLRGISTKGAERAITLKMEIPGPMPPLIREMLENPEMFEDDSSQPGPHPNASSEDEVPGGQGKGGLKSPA
Chain of RARg:RXRa (P19793 whole entry, chain 2 of 2): as the sequence (P19793 whole entry, chain 2 of 2) above
Chain of LXRa:RXRa (Q13133 whole entry, chain 1 of 2): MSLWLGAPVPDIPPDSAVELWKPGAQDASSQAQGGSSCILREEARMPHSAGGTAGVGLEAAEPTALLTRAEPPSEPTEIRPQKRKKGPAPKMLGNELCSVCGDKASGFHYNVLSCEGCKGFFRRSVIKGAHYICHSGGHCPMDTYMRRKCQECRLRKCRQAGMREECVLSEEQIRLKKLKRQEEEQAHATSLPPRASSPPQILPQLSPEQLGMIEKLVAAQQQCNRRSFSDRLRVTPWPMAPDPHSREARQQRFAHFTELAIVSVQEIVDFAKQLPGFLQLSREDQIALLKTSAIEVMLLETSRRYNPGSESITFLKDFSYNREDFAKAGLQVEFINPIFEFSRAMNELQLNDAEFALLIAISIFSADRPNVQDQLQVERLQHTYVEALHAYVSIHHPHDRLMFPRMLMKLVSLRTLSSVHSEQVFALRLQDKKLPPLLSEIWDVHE
Chain of LXRa:RXRa (P19793 whole entry, chain 2 of 2): as the sequence (P19793 whole entry, chain 2 of 2) above
Chain of VDR:RXRa (P11473 whole entry, chain 1 of 2): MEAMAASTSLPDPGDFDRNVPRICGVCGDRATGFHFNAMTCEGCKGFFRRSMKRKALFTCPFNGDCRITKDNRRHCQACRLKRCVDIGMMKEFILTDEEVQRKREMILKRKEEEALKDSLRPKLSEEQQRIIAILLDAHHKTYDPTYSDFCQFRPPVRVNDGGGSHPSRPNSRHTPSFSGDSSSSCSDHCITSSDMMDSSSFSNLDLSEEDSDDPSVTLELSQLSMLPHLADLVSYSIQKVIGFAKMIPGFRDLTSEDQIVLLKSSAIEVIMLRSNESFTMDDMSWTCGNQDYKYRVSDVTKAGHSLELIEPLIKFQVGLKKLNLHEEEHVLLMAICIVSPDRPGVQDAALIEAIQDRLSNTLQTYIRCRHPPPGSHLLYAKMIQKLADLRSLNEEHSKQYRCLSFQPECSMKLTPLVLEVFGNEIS
Chain of VDR:RXRa (P19793 whole entry, chain 2 of 2): as the sequence (P19793 whole entry, chain 2 of 2) above
Chain of PPARa:RXRa (Q07869 whole entry, chain 1 of 2): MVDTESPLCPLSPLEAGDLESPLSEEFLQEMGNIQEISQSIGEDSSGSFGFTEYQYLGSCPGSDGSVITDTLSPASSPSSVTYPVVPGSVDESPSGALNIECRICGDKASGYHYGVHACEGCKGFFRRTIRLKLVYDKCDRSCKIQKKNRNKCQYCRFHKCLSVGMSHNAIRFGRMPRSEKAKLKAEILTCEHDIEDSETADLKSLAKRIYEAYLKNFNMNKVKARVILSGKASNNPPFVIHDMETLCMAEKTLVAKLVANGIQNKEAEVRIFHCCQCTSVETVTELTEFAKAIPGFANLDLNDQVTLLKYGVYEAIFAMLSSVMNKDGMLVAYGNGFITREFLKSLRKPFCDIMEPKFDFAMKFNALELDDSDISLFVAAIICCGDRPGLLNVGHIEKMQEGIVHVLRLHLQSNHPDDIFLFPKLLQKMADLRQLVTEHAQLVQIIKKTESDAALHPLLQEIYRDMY
Chain of PPARa:RXRa (P19793 whole entry, chain 2 of 2): as the sequence (P19793 whole entry, chain 2 of 2) above

B1: NRC3_wobSeed109_DR4_G25C_o1 (dsDNA)
DNA 1: GCCGTCCAAGGTCATAGGAGGTCACTGAAGACAGATGCGATTGACAGCGTAGAATGAAGG
DNA 2: CCTTCATTCTACGCTGTCAATCGCATCTGTCTTCAGTGACCTCCTATGACCTTGGACGGC
binding signal [1]: 7.71 PBM z-score against 500 random probes

B2: NRC3_wobSeed109_DR4_G17A_o1 (dsDNA)
DNA 1: GCCGTCCAAGGTCATAAGAGGTCAGTGAAGACAGATGCGATTGACAGCGTAGAATGAAGG
DNA 2: CCTTCATTCTACGCTGTCAATCGCATCTGTCTTCACTGACCTCTTATGACCTTGGACGGC
binding signal [1]: 7.18 PBM z-score against 500 random probes

B3: NRC3_wobSeed97_DR4_A6T_o1 (dsDNA)
DNA 1: GCCAATCTAGGTCACGAAAGGTCAAAGTCGAATGACGCGATTGACAGCGTAGAATGAAGG
DNA 2: CCTTCATTCTACGCTGTCAATCGCGTCATTCGACTTTGACCTTTCGTGACCTAGATTGGC
binding signal [1]: 8.17 PBM z-score against 500 random probes

B4: NRC3_wobSeed29_DR1_C25T_o1 (dsDNA)
DNA 1: GCGCTTACGGGTCAAAGGTTATAGTATGAATAGAATGCGATTGACAGCGTAGAATGAAGG
DNA 2: CCTTCATTCTACGCTGTCAATCGCATTCTATTCATACTATAACCTTTGACCCGTAAGCGC
binding signal [1]: 8.73 PBM z-score against 500 random probes

B5: NRC3_wobSeed13_DR0_G17C_o1 (dsDNA)
DNA 1: GCCGTCCAAGGTCAAGCTCAGTGAAAGAGACTCGAAGCGATTGACAGCGTAGAATGAAGG
DNA 2: CCTTCATTCTACGCTGTCAATCGCTTCGAGTCTCTTTCACTGAGCTTGACCTTGGACGGC
binding signal [1]: 4.6 PBM z-score against 500 random probes

B6: NRC3_wobSeed13_DR0_C19G_o1 (dsDNA)
DNA 1: GCCGTCCAAGGTCAAGGTGAGTGAAAGAGACTCGAAGCGATTGACAGCGTAGAATGAAGG
DNA 2: CCTTCATTCTACGCTGTCAATCGCTTCGAGTCTCTTTCACTCACCTTGACCTTGGACGGC
binding signal [1]: 4.49 PBM z-score against 500 random probes

B7: NRC3_wobSeed28_DR1_T8A_o1 (dsDNA)
DNA 1: GCCCTACAGGGCCAAAGGTCATTGATTCCAATGCTCGCGATTGACAGCGTAGAATGAAGG
DNA 2: CCTTCATTCTACGCTGTCAATCGCGAGCATTGGAATCAATGACCTTTGGCCCTGTAGGGC
binding signal [1]: 7.45 PBM z-score against 500 random probes

B8: NRC3_wobSeed28_DR1_T22G_o1 (dsDNA)
DNA 1: GCCCTACTGGGCCAAAGGTCAGTGATTCCAATGCTCGCGATTGACAGCGTAGAATGAAGG
DNA 2: CCTTCATTCTACGCTGTCAATCGCGAGCATTGGAATCACTGACCTTTGGCCCAGTAGGGC
binding signal [1]: 4.44 PBM z-score against 500 random probes

B9: NRC3_wobSeed49_DR2_A5C_o1 (dsDNA)
DNA 1: GCCACACTAGGTCAAGAGGTCAAAGTCCGCTTCCCGGCGATTGACAGCGTAGAATGAAGG
DNA 2: CCTTCATTCTACGCTGTCAATCGCCGGGAAGCGGACTTTGACCTCTTGACCTAGTGTGGC
binding signal [1]: 8.44 PBM z-score against 500 random probes

B10: NRC3_random_hg19_385_o1 (dsDNA)
DNA 1: GCTCTATGGTCACTAGACCTTGGGATGCACCAAGGCGCGATTGACAGCGTAGAATGAAGG
DNA 2: CCTTCATTCTACGCTGTCAATCGCGCCTTGGTGCATCCCAAGGTCTAGTGACCATAGAGC
binding signal [2]: 0.2 PBM z-score against 500 random probes | binding signal [3]: 0.11 PBM z-score against 500 random probes | binding signal [4]: 0.45 PBM z-score against 500 random probes

B11: NRC3_wobSeed41_DR1_T8G_o1 (dsDNA)
DNA 1: GCATATGGAGGTTAAGGGTCATTCAGGTTGGTTCGCGCGATTGACAGCGTAGAATGAAGG
DNA 2: CCTTCATTCTACGCTGTCAATCGCGCGAACCAACCTGAATGACCCTTAACCTCCATATGC
binding signal [1]: 7.62 PBM z-score against 500 random probes

B12: NRC3_wobSeed98_DR4_G11T_o1 (dsDNA)
DNA 1: GCACTAGTTGTTCAGCTGAGGTCACACACAATTCGGGCGATTGACAGCGTAGAATGAAGG
DNA 2: CCTTCATTCTACGCTGTCAATCGCCCGAATTGTGTGTGACCTCAGCTGAACAACTAGTGC
binding signal [1]: 4.63 PBM z-score against 500 random probes

B13: NRC3_wobSeed74_DR3_C13T_o1 (dsDNA)
DNA 1: GCTCTAGTTGGTTACGGAGGTCACACACGACGGGTAGCGATTGACAGCGTAGAATGAAGG
DNA 2: CCTTCATTCTACGCTGTCAATCGCTACCCGTCGTGTGTGACCTCCGTAACCAACTAGAGC
binding signal [1]: 4.41 PBM z-score against 500 random probes

B14: NRC3_wobSeed30_DR1_G7A_o1 (dsDNA)
DNA 1: GCACTAACAGGCCAAGGGTCACTCAAGATTAGTCCGGCGATTGACAGCGTAGAATGAAGG
DNA 2: CCTTCATTCTACGCTGTCAATCGCCGGACTAATCTTGAGTGACCCTTGGCCTGTTAGTGC
binding signal [1]: 4.53 PBM z-score against 500 random probes

B15: NRC3_wobSeed37_DR1_G24A_o1 (dsDNA)
DNA 1: GCCGTCCAAGGTCAAAGGTCAGTAAAGAGATGACGGGCGATTGACAGCGTAGAATGAAGG
DNA 2: CCTTCATTCTACGCTGTCAATCGCCCGTCATCTCTTTACTGACCTTTGACCTTGGACGGC
binding signal [1]: 9.33 PBM z-score against 500 random probes

B16: NRC3_wobSeed37_DR1_G22C_o1 (dsDNA)
DNA 1: GCCGTCCAAGGTCAAAGGTCACTGAAGAGATGACGGGCGATTGACAGCGTAGAATGAAGG
DNA 2: CCTTCATTCTACGCTGTCAATCGCCCGTCATCTCTTCAGTGACCTTTGACCTTGGACGGC
binding signal [5]: 7.17 PBM z-score against 500 random probes | binding signal [3]: 7.38 PBM z-score against 500 random probes | binding signal [6]: 9.31 PBM z-score against 500 random probes | binding signal [4]: 11.9 PBM z-score against 500 random probes

B17: NRC3_random_hg19_319_o1 (dsDNA)
DNA 1: GCTCCCTGCCAGCCCTGGTCTGAAGCAAGCCTAGAGGCGATTGACAGCGTAGAATGAAGG
DNA 2: CCTTCATTCTACGCTGTCAATCGCCTCTAGGCTTGCTTCAGACCAGGGCTGGCAGGGAGC
binding signal [3]: -0.63 PBM z-score against 500 random probes | binding signal [4]: -1.25 PBM z-score against 500 random probes

B18: NRC3_wobSeed17_DR0_A24T_o1 (dsDNA)
DNA 1: GCATATGTAGGTTAGGGTCATTCTGAAAGTAGGGAAGCGATTGACAGCGTAGAATGAAGG
DNA 2: CCTTCATTCTACGCTGTCAATCGCTTCCCTACTTTCAGAATGACCCTAACCTACATATGC
binding signal [1]: 4.56 PBM z-score against 500 random probes

B19: NRC3_wobSeed25_DR1_C26T_o1 (dsDNA)
DNA 1: GCCAAACTAGGTCAAAGGTCAAAGTTGAGCCAACCAGCGATTGACAGCGTAGAATGAAGG
DNA 2: CCTTCATTCTACGCTGTCAATCGCTGGTTGGCTCAACTTTGACCTTTGACCTAGTTTGGC
binding signal [1]: 9.38 PBM z-score against 500 random probes

B20: NRC3_wobSeed25_DR1_A5G_o1 (dsDNA)
DNA 1: GCCAGACTAGGTCAAAGGTCAAAGTCGAGCCAACCAGCGATTGACAGCGTAGAATGAAGG
DNA 2: CCTTCATTCTACGCTGTCAATCGCTGGTTGGCTCGACTTTGACCTTTGACCTAGTCTGGC
binding signal [1]: 9.27 PBM z-score against 500 random probes

B21: NRC3_wobSeed5_DR0_G23T_o1 (dsDNA)
DNA 1: GCCCTTACGGGTCAAGGTTATATCACGGGTGGTACGGCGATTGACAGCGTAGAATGAAGG
DNA 2: CCTTCATTCTACGCTGTCAATCGCCGTACCACCCGTGATATAACCTTGACCCGTAAGGGC
binding signal [1]: 4.39 PBM z-score against 500 random probes

B22: NRC3_wobSeed46_DR1_C7A_o1 (dsDNA)
DNA 1: GCTTACAAAGGTGAAAGGTCGTTGATGCACGCCTTGGCGATTGACAGCGTAGAATGAAGG
DNA 2: CCTTCATTCTACGCTGTCAATCGCCAAGGCGTGCATCAACGACCTTTCACCTTTGTAAGC
binding signal [1]: 7.64 PBM z-score against 500 random probes

B23: NRC3_random_hg19_290_o1 (dsDNA)
DNA 1: GCGCCTCCATCTCAGGACTTGATTCTATTGAGTTAAGCGATTGACAGCGTAGAATGAAGG
DNA 2: CCTTCATTCTACGCTGTCAATCGCTTAACTCAATAGAATCAAGTCCTGAGATGGAGGCGC
binding signal [3]: -0.26 PBM z-score against 500 random probes | binding signal [7]: -0.45 PBM z-score against 500 random probes | binding signal [6]: -0.59 PBM z-score against 500 random probes | binding signal [4]: -0.43 PBM z-score against 500 random probes

B24: NRC3_random_hg19_455_o1 (dsDNA)
DNA 1: GCCTGCAGTTTCTGTTTCCGTGGTCCAGGTTGAGCCGCGATTGACAGCGTAGAATGAAGG
DNA 2: CCTTCATTCTACGCTGTCAATCGCGGCTCAACCTGGACCACGGAAACAGAAACTGCAGGC
binding signal [3]: -0.33 PBM z-score against 500 random probes | binding signal [4]: -2.08 PBM z-score against 500 random probes

B25: NRC3_wobSeed33_DR1_A13T_o1 (dsDNA)
DNA 1: GCATCTCTAGGTTAAAGTTCAGTGAATCCCGAGGATGCGATTGACAGCGTAGAATGAAGG
DNA 2: CCTTCATTCTACGCTGTCAATCGCATCCTCGGGATTCACTGAACTTTAACCTAGAGATGC
binding signal [3]: 3.64 PBM z-score against 500 random probes | binding signal [4]: 10 PBM z-score against 500 random probes

B26: NRC3_random_hg19_195_o1 (dsDNA)
DNA 1: GCGGACTGTCTGCAAAGAGTCCTGTGATATGATCTGGCGATTGACAGCGTAGAATGAAGG
DNA 2: CCTTCATTCTACGCTGTCAATCGCCAGATCATATCACAGGACTCTTTGCAGACAGTCCGC
binding signal [2]: -1.32 PBM z-score against 500 random probes | binding signal [3]: -0.96 PBM z-score against 500 random probes | binding signal [4]: 0.1 PBM z-score against 500 random probes
